Data on three sequences can be found in patent publication US12305172.

One series addresses thrombin (Bos taurus) (UniProt P00735+P00735). Nature of the series: inhibition. The note with it: clotting time.
The next series concerns the target thrombin (UniProt P00734+P00734). The note with it: CD titration at 295 nm, water, no added cations.

pKd: −log10 of the molar value. Read-outs that look alike come from different tables or passages of the source.

On to GGTTGGTGTGGTTGG [isoTBA], for which, in the series with thrombin (Bos taurus) (2'-5'-linked isoDNA analogue of TBA [1-15 (all 2'-5'-linked isoDNA)], stated for comparison with TBA and iso-rTBA), the activity stood at 73.4 s.
On to GGUUGGUGUGGUUGG [iso-rTBA], for which the pKd (in general, −log10 of the Kd, conventionally taken in molar units) with thrombin (all 2'-5'-linked RNA (3'-OH), SEQ ID NO:1, n = 4 thrombin per oligomer) is 5.47. This sequence returned an activity with thrombin (Bos taurus) (all 2'-5'-linked RNA (3'-OH), SEQ ID NO:1, 0.25 uM oligomer, 0.1 NIH U thrombin, 3.5 uM human fibrinogen, 37 °C) of 70.9 s.
In the case of GGTTGGTGTGGTTGG [TBA], in the series with thrombin (n = 1), the pKd is 6.42.
